Experimental data reported in patent US20230312724A1 (KADMON, published 2023).

T1: mouse B7-H4-his (mouse, UniProt Q7TSP5 25-257)
T1 construct: also called mB7-H4-his; mB7-H4-His; not shown: his tag
T1 sequence: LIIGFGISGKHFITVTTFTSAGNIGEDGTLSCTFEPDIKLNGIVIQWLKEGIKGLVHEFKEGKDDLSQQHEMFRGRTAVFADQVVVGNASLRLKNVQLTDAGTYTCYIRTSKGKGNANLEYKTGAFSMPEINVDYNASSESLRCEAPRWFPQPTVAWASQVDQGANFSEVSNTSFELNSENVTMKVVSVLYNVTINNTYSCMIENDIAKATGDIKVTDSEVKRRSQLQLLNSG

T2: human B7-H4-his (human, UniProt Q7Z7D3 25-259)
T2 construct: also called hB7-H4-his; hB7-H4 his; not shown: his tag
T2 sequence: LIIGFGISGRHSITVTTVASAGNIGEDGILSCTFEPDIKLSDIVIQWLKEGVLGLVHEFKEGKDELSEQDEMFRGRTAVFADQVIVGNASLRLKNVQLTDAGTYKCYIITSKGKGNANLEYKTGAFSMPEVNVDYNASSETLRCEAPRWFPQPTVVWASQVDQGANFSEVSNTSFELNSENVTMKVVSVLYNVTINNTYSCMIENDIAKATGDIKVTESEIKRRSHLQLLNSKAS

T3: hB7-H4 (soluble human B7-H4, construct not named) (human, UniProt Q7Z7D3 25-259, limits assumed)
T3 construct: also called soluble hB7-H4
T3 sequence: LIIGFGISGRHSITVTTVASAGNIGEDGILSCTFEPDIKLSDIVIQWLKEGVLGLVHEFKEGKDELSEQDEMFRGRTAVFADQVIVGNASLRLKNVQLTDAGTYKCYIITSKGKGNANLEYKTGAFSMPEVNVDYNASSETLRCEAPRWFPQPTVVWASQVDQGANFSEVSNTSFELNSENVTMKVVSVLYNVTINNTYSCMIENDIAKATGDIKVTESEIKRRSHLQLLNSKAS

T4: mB7-H4 (soluble mouse B7-H4, construct not named) (mouse, UniProt Q7TSP5 25-257, limits assumed)
T4 sequence: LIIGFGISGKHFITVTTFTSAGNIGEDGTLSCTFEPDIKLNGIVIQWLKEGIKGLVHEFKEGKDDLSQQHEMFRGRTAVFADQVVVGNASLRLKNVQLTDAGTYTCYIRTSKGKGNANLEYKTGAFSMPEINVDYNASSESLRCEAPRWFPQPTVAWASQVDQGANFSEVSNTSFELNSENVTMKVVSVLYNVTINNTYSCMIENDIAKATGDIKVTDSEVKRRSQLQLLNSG


Experiments:
[1] = biological target: T1, mouse B7-H4-his; test: ELISA on coated mB7-H4-his
Procedure: (§1) About 1-2 μg/ml of human or mouse B7-H4-Fc (or his-tagged) was immobilized on ELISA plates (Immuno 2HB, Thermo scientific, cat #3455) at 4° C. overnight. After blocking the plates with 3% PBS+milk, serial diluted antibodies were added to the blocked plates and incubated at RT for 1-1.5 h. After washing the plates with PBS-T (0.05%), horse radish peroxidase (HRP)-conjugated antibody targeting the hFab was added to the plate. Signals were developed by adding 3,3′,5,5′-Tetramethylbenzidine (TMB (followed 1N of H₂SO₄ to stop the reaction. The OD at 450 nm was read by ELISA plate reader (Infinite M1000 from TECAN). GraphPad from Prism was used to plot OD450 vs. antibody concentration curve and to calculate the EC50 values.

[2] = biological target: T2, human B7-H4-his; test: ELISA on coated hB7-H4-his
Procedure: as §1

[3] = biological target: T3, hB7-H4 (soluble human B7-H4, construct …); test: SPR (Biacore)
How it was run: (§2)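 Kinetic constants came from a 1:1 Langmuir fit of binding at 25 °C in HBS-EP, pH 7.4. Analyte (100 nM to 0.1 nM) flowed for 180 s, then dissociated for 1000 or 1200 s, over amine-coupled human B7-H4-Fc, human B7-H4-his or mouse B7-H4-Fc surfaces at 50-100 RU.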

[4] = biological target: T4, mB7-H4 (soluble mouse B7-H4, construct …); test: SPR (Biacore)
How it was run: as §2

EC50 (read off the curve) [1]	EC50 (read off the curve) [2]	Kd [3]	Kd [4]	Binder
~200 pM	~200 pM	–	–	Control antibody 1 (antibody 20502 described in US20190085080A1) (antibody, V domains shown, also called (+) control Ab1; (+) Ab1) VH: QLQLQESGPGLVKPSETLSLTCTVSGGSIKSGSYYWGWIRQPPGKGLEWIGNIYYSGSTYYNPSLRSRVTISVDTSKNQFSLKLSSVTAADTAVYYCAREGSYPNQFDPWGQGTLVTVSS VL: EIVMTQSPATLSVSPGERATLSCRASQSVSSNLAWYQQKPGQAPRLLIYGASTRATGIPARFSGSGSGTEFTLTISSLQSEDFAVYYCQQYHSFPFTFGGGTKVEIK
–	–	303 pM	99.8 pM	39A11/57G8 (antibody, human IgG1, V domains shown, 39A11 VH with 57G8 VL) VH: EVQLLESGGGLVQPGGSLRLSCAASGFTFSSYGMHWVRQAPGKGLEWVASISSSSGYIYYADSVKGRFTISRDNSKNTLYLQMNSLRAEDTAVYYCARASSGMDVWGQGTTVTVSS VL: DIQMTQSPSSLSASVGDRVTITCRASQSIRSYLNWYQQKPGKAPKLLIYYASSLQSGVPSRFSGSGSGTDFTLTISSLQPEDFATYYCQQYYSTPLTFGQGTKVEIK
